Data published in paper PMC3488246.

Legend:
PALB2 = target: T1, PALB2 (UniProt Q86YC2 1-1186); assay: EMSA
T1 sequence: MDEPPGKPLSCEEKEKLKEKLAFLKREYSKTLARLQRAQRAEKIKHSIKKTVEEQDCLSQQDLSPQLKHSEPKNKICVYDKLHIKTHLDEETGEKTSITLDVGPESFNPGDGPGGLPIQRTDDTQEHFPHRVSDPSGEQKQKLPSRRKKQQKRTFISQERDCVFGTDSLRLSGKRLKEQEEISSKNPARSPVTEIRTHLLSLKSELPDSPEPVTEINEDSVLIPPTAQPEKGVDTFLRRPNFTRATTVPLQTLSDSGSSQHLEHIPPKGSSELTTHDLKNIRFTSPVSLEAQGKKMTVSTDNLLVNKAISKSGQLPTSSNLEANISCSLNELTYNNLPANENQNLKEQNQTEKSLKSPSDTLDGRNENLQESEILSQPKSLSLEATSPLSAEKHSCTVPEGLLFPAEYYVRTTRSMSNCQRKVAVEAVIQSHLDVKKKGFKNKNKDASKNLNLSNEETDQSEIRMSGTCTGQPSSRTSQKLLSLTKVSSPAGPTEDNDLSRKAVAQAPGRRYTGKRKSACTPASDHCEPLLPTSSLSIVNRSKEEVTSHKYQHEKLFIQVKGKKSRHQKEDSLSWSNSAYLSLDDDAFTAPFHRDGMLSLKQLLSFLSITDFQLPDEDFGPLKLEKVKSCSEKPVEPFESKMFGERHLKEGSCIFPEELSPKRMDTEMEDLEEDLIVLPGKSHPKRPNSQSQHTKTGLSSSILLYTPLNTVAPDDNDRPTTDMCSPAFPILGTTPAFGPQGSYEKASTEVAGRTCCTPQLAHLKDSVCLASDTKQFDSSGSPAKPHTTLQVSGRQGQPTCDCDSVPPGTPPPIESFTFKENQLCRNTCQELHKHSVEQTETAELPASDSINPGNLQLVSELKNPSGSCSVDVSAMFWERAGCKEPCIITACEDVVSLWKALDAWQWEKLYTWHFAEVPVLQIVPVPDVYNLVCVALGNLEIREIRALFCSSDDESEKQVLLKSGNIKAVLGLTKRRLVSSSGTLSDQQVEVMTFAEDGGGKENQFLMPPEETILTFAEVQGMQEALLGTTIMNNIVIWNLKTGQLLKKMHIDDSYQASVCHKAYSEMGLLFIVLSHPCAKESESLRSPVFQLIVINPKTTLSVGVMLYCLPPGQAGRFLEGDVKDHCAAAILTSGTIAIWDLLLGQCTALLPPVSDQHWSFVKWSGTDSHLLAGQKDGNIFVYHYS

PALB2Δ1-40 = target: T2, PALB2Δ1-40 (UniProt Q86YC2 41-1186, del1-40); assay: EMSA
T2 sequence: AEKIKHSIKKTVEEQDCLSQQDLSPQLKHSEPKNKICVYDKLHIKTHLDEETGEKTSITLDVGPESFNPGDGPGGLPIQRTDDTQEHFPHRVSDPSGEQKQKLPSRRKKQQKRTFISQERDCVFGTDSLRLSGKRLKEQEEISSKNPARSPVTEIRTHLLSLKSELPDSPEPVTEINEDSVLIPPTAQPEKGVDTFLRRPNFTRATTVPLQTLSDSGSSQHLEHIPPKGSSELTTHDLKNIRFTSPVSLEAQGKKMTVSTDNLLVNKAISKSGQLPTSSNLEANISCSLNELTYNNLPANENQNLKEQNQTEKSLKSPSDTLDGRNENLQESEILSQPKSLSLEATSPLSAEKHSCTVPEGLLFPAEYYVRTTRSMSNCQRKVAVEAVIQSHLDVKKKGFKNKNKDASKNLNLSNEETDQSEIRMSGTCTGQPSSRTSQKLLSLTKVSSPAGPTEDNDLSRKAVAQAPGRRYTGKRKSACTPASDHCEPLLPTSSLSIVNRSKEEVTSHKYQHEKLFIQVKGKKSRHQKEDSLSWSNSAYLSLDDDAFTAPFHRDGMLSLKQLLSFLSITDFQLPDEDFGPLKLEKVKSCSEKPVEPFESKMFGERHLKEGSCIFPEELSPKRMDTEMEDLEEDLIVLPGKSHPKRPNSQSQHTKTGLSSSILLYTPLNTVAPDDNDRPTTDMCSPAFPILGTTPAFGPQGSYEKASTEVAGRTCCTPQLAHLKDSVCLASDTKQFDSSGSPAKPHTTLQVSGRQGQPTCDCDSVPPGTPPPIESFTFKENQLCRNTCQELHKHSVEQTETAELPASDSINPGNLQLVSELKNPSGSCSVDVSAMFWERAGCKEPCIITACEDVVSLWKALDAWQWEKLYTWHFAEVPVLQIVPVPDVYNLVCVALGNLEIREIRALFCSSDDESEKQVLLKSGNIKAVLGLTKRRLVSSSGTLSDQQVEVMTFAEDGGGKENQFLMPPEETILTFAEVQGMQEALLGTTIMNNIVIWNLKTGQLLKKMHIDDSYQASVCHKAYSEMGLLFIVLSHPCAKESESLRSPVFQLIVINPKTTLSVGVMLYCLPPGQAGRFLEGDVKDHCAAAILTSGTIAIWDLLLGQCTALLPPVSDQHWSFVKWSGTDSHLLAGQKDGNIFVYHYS

B1: 60 nt ssDNA (ssDNA)
DNA: GGGTGAACCTGCAGGTGGGCAAAGATGTCCTAGCAATGTAATCGTCAAGCTTTATGCCGT
binding result (PALB2): binds
binding signal (PALB2Δ1-40): ~5 fold stronger affinity than PALB2
